The subject of the series is MS2 coat protein. Briefly: apparent KD of MS2 coat protein; higher = weaker reporter binding. The note with it: Eterna round: R107. The method, boiled down: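 Illumina sequencing clusters were used for on-chip transcription of designed RNA switches. Titration with SNAP-549-labelled MS2 coat protein followed, in twofold steps from 0.7 or 1.5 nM to 3 µM in 100 mM Tris-HCl pH 7.5, 80 mM KCl, 4 mM MgCl2, without or with constant ligand. Apparent KD is each design's median of fits to normalised cluster binding curves.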

The mark [1] stands for this setting: input ligand: theophylline 20 uM.
Setting [2] is: input ligand: tryptophan 2.4 mM.
The mark [3] stands for this setting: input ligand: theophylline 2 mM.

Regarding “GCACCAGGUACGGAUACCAGACUCUGCCGAUUGGGUGAACAUGAGGAUCACCCAUGUUAGGUCCCUUGGCAGCCGUACCUGGUGC [#18 Exclusion-TheophyllineB]”, the “apparent KD of MS2 coat protein” value (input ligand: arginine 13.2 mM) was 26.4 nM, the “apparent KD of MS2 coat protein” value under setting [1] turned out to be 73.5 nM and the “apparent KD of MS2 coat protein” value under setting [2] was 30.3 nM.
For “GCACCAGGUACGGAUACCAGCUAUAGGCCCUAUGGGCGACAUGAGGAUCACCCAUGUAAUGGCCCUUGGCAGCUGUACCUGGUGC [SSThB NP+V+V2 #10 +-Same Structure]”, in that order: 120 nM, 97.3 nM and 169 nM.
For “GCACCAGGUACGGAUACCAGCUGCCAGCGUUACAUGAGGAUCACCCAUGUGAUCUGAUAUAGCCCUUGGCAGCUGUACCUGGUGC [SSThB NP+V+V2 #3 +-Same Structure]”, in that order: 43.4 nM, 416 nM and 49.6 nM.
Consider “GCACUACAUGAGGAUCACCCAUGUGCAGAUACCAGAGGUGUAUGCCUCCCUUGGCAGCUGCGUCGCUCUGGCAGCUUGUGGGUUG [Same State Theophylline A GF18]”, for which the “apparent KD of MS2 coat protein” value (input ligand: arginine 13.2 mM) is 40.3 nM, the “apparent KD of MS2 coat protein” value under setting [1] was 117 nM and the “apparent KD of MS2 coat protein” value under setting [2] was 81.5 nM.
Consider “GCCGGGCCCUCGGCCGCCACUGAGAGAGUCGUGUGAACAUGAGGAUCACCCAUGUAAUAUAUAUACAGGACCGGGAGGGCCCGGC [4.W]”, for which the “apparent KD of MS2 coat protein” value worked out at 11.9 nM (input ligand: arginine 13.2 mM); 13.3 nM (input ligand: none); 21.8 nM under setting [1]; 13.9 nM under setting [3]; 11.9 nM under setting [2].
Turning to “GCCUGGGAUACGGCCGCCACUACAUGAGGAUCACCCAUGUAAUAUUUAUUAGAAGAGAGGGUAUGUAGGACCGGGUAAGGAAGGC [e-trypB-0]”, the “apparent KD of MS2 coat protein” value (input ligand: arginine 13.2 mM) amounted to 14.3 nM; the “apparent KD of MS2 coat protein” value (input ligand: none) was 15.8 nM; the “apparent KD of MS2 coat protein” value under setting [1] was found to be 24.9 nM; the “apparent KD of MS2 coat protein” value under setting [3] turned out to be 22.5 nM; the “apparent KD of MS2 coat protein” value under setting [2] was 26 nM.
In the case of “GCGGUCGGAGUGCGGCGUGUUCCGCUCCGUCGAGGACCGGUACGGCCGCCACUCGACAUGAGGAUCACCCAUGUCCGACCGCGCG [#1 Exclusion - Tryptophan A Attempt #5 (HarryS)]”, the “apparent KD of MS2 coat protein” value (input ligand: arginine 13.2 mM) was 18.4 nM; the “apparent KD of MS2 coat protein” value (input ligand: none) worked out at 13.4 nM; the “apparent KD of MS2 coat protein” value under setting [1] was 66.5 nM; the “apparent KD of MS2 coat protein” value under setting [3] amounted to 28.8 nM; the “apparent KD of MS2 coat protein” value under setting [2] came out at 6.86 nM.
Regarding “GCGUGUUAUAGUCAUCGUGAGCGUCCAUCCCGAGGACCGGUACGGCCGCCACUCGCCACAGGACAUGAGGAUCACCCAUGUUAUG [theeternabot_exclusion_MS2_Trp_A_3]”, the “apparent KD of MS2 coat protein” value stood at 9.62 nM (input ligand: arginine 13.2 mM), 16.8 nM under setting [1] and 13.8 nM under setting [3].
Take “GCUGCCAUACGAAGGAGCGCUGGUGUAAUGAGGCGAACAUGAGGAUCACCCAUGUGGCAGAAGCAGGUAGGUCGCGUAUGGCAGC [EAB #15]”: the “apparent KD of MS2 coat protein” value turned out to be 12.9 nM (input ligand: arginine 13.2 mM); 14.2 nM (input ligand: none); 20.6 nM under setting [1]; 14.9 nM under setting [3]; 18.3 nM under setting [2].
On to “GGAAGGACAGUUGAUACCAGUUUCAAAGGCGGUAAUCACUACAUGAGGAUCACCCAUGUCAACCCUUGGCAGCAAUAGACCGUGG [theeternabot_exclusion_MS2_Theo_B_6]”, for which the “apparent KD of MS2 coat protein” value runs as follows: (input ligand: arginine 13.2 mM) 24 nM; under setting [1], 28.1 nM; under setting [2], 19.2 nM.
For “GGAAUAACGAUUGAUACCAGCAUGUUAACAUGAGGAUCACCCAUGUUAAGGAUAACAUAAUGCCCUUGGCAGCAACGGAAACCCG [#23Same State - Theophylline B]”, in that order: 16.3 nM, 19.2 nM and 17.8 nM.
For “GGACUAACCAGAAGGAGCGACGCGCAGAAACUGCAAAUUCCUCCACACGAGGAUCACCCGUGUCAGGUAGGUCGCUGGUUAGUCG”, the “apparent KD of MS2 coat protein” value was determined as 16.5 nM (input ligand: arginine 13.2 mM); 16.6 nM (input ligand: none); 23 nM under setting [1]; 16.1 nM under setting [3]; 18.2 nM under setting [2].
For “GGACUAACCAGAAGGAGCGGCACGCAGAAACUGCAAAAUCCUCCACACGAGGAUCACCCGUGUCAGGUAGGUCGCUGGUUAGUCG”, in that order: 45.8 nM, 48.6 nM, 55 nM, 52.5 nM and 48.4 nM.
As to “GGAGUAGAUGCGGCCGCCACUUUCUCAAGACACUACAUGAGGAUCACCCAUGUCCAUUCUACACUAAGGACCGGGCAUCCCAUGG [Alaa]”, the “apparent KD of MS2 coat protein” value is 36.8 nM (input ligand: arginine 13.2 mM), 182 nM under setting [1] and 192 nM under setting [3].

Values taken from the supplement of paper PMC9170038.
